Numbering of substitutions follows the chain as printed. In names and notes the source's numbering stands.

As a reminder, the MIC is the least concentration at which growth counts as inhibited.

In series [1] the test system is E. coli (ATCC 8739) / C. albicans (ATCC 10231). The series can be described thus: MIC of permeabilizer co-dosants with and without Tgase variant. The class given is cell-based. To be noted: for Co-Dosant MIC, with Tgase variant: with Tgase variant A3 (SEQ ID NO: 4): 12.5 ppm with polymyxin B, 200 ppm with chlorhexidine and with the mixture. Here is the method:
E. coli (ATCC 8739) and C. albicans (ATCC 10231) were acquired from the American Type Culture Collection (ATCC) (Manassas, VA) and maintained as −80° C. frozen glycerol stocks.
The following day, the cell density of the saturated cultures was calculated using OD600 and cultures were diluted to 104 to 10^6 CFU/mL in sterile Mueller Hinton broth to generate the inoculum, and 100 μL of the inoculum was combined with 100 μL of serially diluted Tgase variant A3 (SEQ ID NO: 4) at a range of 0.0001-0.05 weight percent. Growth curves were measured by OD600 on a BioTek® Synergy Plate Reader. All test conditions were performed in triplicate. MIC was determined to be […] (0.005% w/v) against E. coli for the enzyme described in SEQ ID NO: 4 using OD600.
For MIC determination of yeast cultures, C. albicans (ATCC 10231) was grown overnight (24 hours) in Sabouraud Dextrose broth at 30° C. The following day, the cell density of the saturated cultures was calculated using OD600 and cultures were diluted to 104 to 10^6 CFU/mL in sterile Sabouraud Dextrose broth media to generate the inoculum, and 100 μL of the inoculum was combined with 100 μL of serially diluted Tgase variant at a range of 0.0001-0.05 weight percent. The cultures were grown overnight at 30° C. and growth curves were measured by OD600 on a BioTek® Synergy Plate Reader. All test conditions were performed in triplicate. MIC was determined to be […] (0.005% w/v) against C. albicans for the enzyme described in SEQ ID NO: 4 using OD600.
Aseptilase activities of Tgase variant A3 (SEQ ID NO: 4) in combination with each of the three permeabilizer co-dosants, polymyxin B, chlorhexidine, and a 10000:4000:1 mixture by weight of sodium hexametaphosphate, phytic acid and chlorhexidine, were tested. […] The experiments were performed as described in Example 5. The co-dosants were added into Tgase variant A3 (SEQ ID NO: 4) solutions at concentrations of 0.125 g/L, 0.05 g/L, and 350 mM, respectively. The results are shown in Table 12 with Tgase concentrations reported within the table at the best MIC.

Series [2] deals with N,N-dimethylcasein. The series can be described thus: Productivity: total product formed after 24 hours (protein functionalization assay). The series is classed as biochemical. More on the design: key: −: a reduction in activity; +: an improvement between 1.2 and 2-fold; ++: an improvement between 2 and 5-fold; +++: an improvement greater than 5-fold. To be noted: improvement relative to wild-type Tgase (SEQ ID NO: 2); total product after 24 h. Here is the method: (§1) Enzymatic “productivity” is a measure of product formation or substrate disappearance over time, at a prescribed temperature under specified reaction conditions. It is the measure both the durability and reaction yield of the enzyme variant. In this instance, productivity is defined as total product formed over 24-hours at a constant substrate concentration when the enzyme is the rate limiting factor. The time is defined as 24 hours, which represents approaching or surpassing burnout, denaturation, or self-reaction of the enzyme variant. In other words, variants with higher productivity deliver a higher product yield in 24-hours than variants with lower productivity produce in the same period of time. “Rate” refers to the initial rate for an enzymatic reaction, at a prescribed temperature under specified reaction conditions. The enzyme produces product at an initial rate that is approximately linear for a short period after the start of the reaction. When concentrations of enzyme and substrate are the same across the sample set, initial rates between enzyme variants can be compared. In this instance, the linear range for production of product occurs in one hour. Enzyme variants with faster initial rates deliver a higher product yield in one hour than variants with slower initial rates produce at the same time-period. In some cases, improvements to initial rates also deliver a more productive variant. In some cases, improvements to initial rates result in faster decay of the enzyme variant reducing overall enzymatic productivity. Productivity and rate may be assessed as described in Example 2.
(§2) Table 6 depicts variants of Streptomyces mobaraensis Tgase and improvement to productivity and/or rate relative to wild-type Tgase (SEQ ID NO. 2) as determined in Example 3. Numbering of amino acid positions is in reference to the mature S. mobaraensis Tgase sequence depicted in SEQ ID NO. 2. A “−” indicates a reduction in activity. A “+” indicates an improvement between 1.2 and 2-fold. A “++” indicates an improvement between 2 and 5-fold. A “+++” indicates an improvement greater than 5-fold.
To evaluate productivity, total product formed was measured after 24-hours of incubation, using the assay described in Example 4B. The time is defined as 24 hours which represents approaching or surpassing burnout, denaturation, or self-reaction of the enzyme variant.
(§3) Protein functionalization by Tgase variants was determined by the fluorogenic labeling of casein using monodansylcadaverine (e.g., a commercially available kit such as the Transglutaminase Fluorogenic Activity Assay Kit, T036, Zedira, Germany). Tgase activity was monitored by measuring fluorescence (excitation wavelength 332 nm; emission wavelength 500 nm) using a BioTek Synergy H1 microplate reader. Transglutaminase-catalyzed covalent coupling (crosslinking) of monodansylcadaverine with N,N-dimethylcasein produces a product that causes a shift in intensity and wavelength of fluorescence of the dansyl group now linked to the casein. The relative transglutaminase activity is shown by increase of fluorescence intensity over time. Enzyme variant loading was optimized based on expression levels, ensuring enzyme was the rate limiting factor. Briefly, cell-free reactions (set up as described in Example 2A) were first diluted 10-fold using phosphate buffer, pH 7.4, and a 5 microliter aliquot was analyzed.

Series [3] concerns N,N-dimethylcasein. The series can be described thus: Rate of product formation over 60 minutes (protein functionalization assay). The series is classed as biochemical. The conditions noted are these: improvement relative to wild-type Tgase (SEQ ID NO: 2); initial rate over 60 min. Here is the method:
as §1, §2
Rate was assessed by measuring the rate of product formation over 60 minutes of incubation using a kinetic method to take scans every 60 seconds to determine product formation, using reaction conditions as described in Example 4B. The enzyme produces product at an initial rate that is approximately linear for the first one hour of the reaction. The concentrations of enzyme and substrate are the same across the sample set for each enzyme variant. Enzyme variants with faster initial rates deliver a higher product yield in one hour than variants with slower initial rates produce at the same time-period.
as §3

Series [4] is described as follows: Thermal stability at 55 °C, specific activity by colorimetric hydroxamate assay. The class given is biochemical. How it is done:
Tgase activity was measured herein using a colorimetric hydroxamate activity assay (Folk and Cole (1965) J Biol Chemistry 240 (7): 2951-2960). Briefly, the hydroxamate assay uses N-benzyloxycarbonyl-L-glutaminyl-glycine (ZQG) as a low molecular weight amine acceptor substrate and hydroxylamine as an amine donor. In the presence of catalytically active Tgase, the hydroxylamine is incorporated to form Z-glutamylhydroxamate-glycine, which develops a colored complex with iron (III), detectable at 525 nm after incubation at 37° C. for 5-200 minutes. The calibration was performed using L-glutamic acid gamma-monohydroxamate (Millipore® Sigma®) as a standard. One unit of Tgase was defined as the amount of enzyme that catalyzes formation of 1 μmol of the peptide derivative of gamma-glutamylhydroxylamine per minute. Activity of Tgase variants is depicted in Tables 2-4.
A commercially available wild-type Tgase (Ajinimoto®, Activa® TI formulation) formulated at 0.75-1.0% enzyme in maltodextrin was purchased from Amazon.com and dissolved in water at 20% w/v. The concentration of the mature Tgase in the solution was confirmed by high-performance liquid chromatography (HPLC) and the sample was further diluted to 0.1 g/L of enzyme. Following dilution, the enzyme was subjected to the hydroxamate assay as described in Example 4 to determine specific activity. The specific activity of the commercial wild-type Tgase compared to Tgase variant A3 (SEQ ID NO: 4), further comprising an N-terminal methionine, is shown in FIG. 1.
The thermal stability of Tgase variant A3 (SEQ ID NO: 4) compared to the commercial wild-type Tgase was evaluated by incubating the samples at 55° C. and testing the enzyme concentration and activity at various timepoints. Six timepoints were tested: 0, 30, 60, 120, 240, and 480 minutes.
The enzyme concentration was measured by HPLC. The samples were diluted 10-fold in 50 mM phosphate pH 7.4, 100 mM NaCl. The samples were tested by reverse phase using a Zorbax SB300-C8 column with 0.1% trifluoroacetic acid in water (MPA) and 0.08% trifluoroacetic acid in acetonitrile (MPB).
The activity was determined using the colorimetric activity assay described in Example 4A. The specific activity (U/mg) of the samples was calculated using the concentration of each sample as determined per Example 4D (results shown in Table 10).

The test system of a further series is collagen. Kind of series: Collagen-modifying activity with FITC-gelatin or FITC-cadaverine. The series is classed as biochemical. The conditions noted are these: 16 hours, pH 7.4. Here is the method: Substrate specificity for collagen of Tgase variant A3 (SEQ ID NO: 4) was tested by allowing the variant to react with either fluorescein-labeled gelatin (FITC-Gelatin, to test protein-protein cross-linking) or fluorescein-labeled cadaverine (FITC-cadaverine, to test protein-small molecule cross-linking) with a collagen layer deposited on the bottom of a 96-well microtiter plate. Tgase variant A3 (SEQ ID NO: 4) and wild-type Tgase were diluted to 4-800 ppm in 50 mM phosphate buffer, pH 7.4, supplemented with 100 mM NaCl in 96-well collagen coated microtiter plates. Either FITC-gelatin or FITC-cadaverine was added to 1 g/L (final volume 100 μL) and the plates were sealed and incubated at either 37° C. or 50° C. for 16 hours. The reaction supernatants were carefully removed and then 200 μL 50 mM [COMPOUND LEFT OUT] mM NaCl, pH 7.4 buffer was added gently against the side of each well then carefully removed. This wash step was repeated. The plate-bound material was extracted by vigorously pipetting 100 μL dimethylsulfoxide into each well, then the extract was transferred into a black bottom 96-well plate. The fluorescence of the samples was measured at an excitation wavelength of 487 nm and an emission wavelength of 528 nm. The fluorescence signal is assumed to be proportionate to the concentration of fluorescent product extracted from the surface of the plate. For both FITC-gelatin and FITC-cadaverine, the fluorescence response per concentration enzyme was higher for wells treated with Tgase variant A3 (SEQ ID NO: 4) than for wells treated with wild-type Tgase (Table 11).

In the case of `[H]/N=C(\N/C(=N/[H])NCCCCCCNC(=N)NC(=N)Nc1ccc(Cl)cc1)Nc1ccc(Cl)cc1` [Chlorhexidine, reference compound], the MIC in series [1] (read-out: Co-Dosant MIC, without Tgase variant) worked out at 2 µg/mL. In series [1], the “Co-Dosant MIC, with Tgase variant” value turned out to be 1 ppm.

On to Polymyxin B [reference compound], for which the “Co-Dosant MIC, with Tgase variant” value in series [1] is given as 0.156 ppm. In addition, the “Co-Dosant MIC, without Tgase variant” value in series [1] (without Tgase variant) is given as 0.625 ppm.

B1: A2: Tgase variant S2P Q50S Q74A K91H Q124L K151R K152R N282E S284A relative to SEQ ID NO: 2 (protein, UniProt P81453 77-407, looked up, variant S2P Q50S Q74A K91H Q124L K151R K152R N282E S284A)
Protein-glutamine …: DPDDRVTPPAEPLDRMPDPYRPSYGRAETVVNNYIRKWQQVYSHRDGRKSQMTEEQREWLSYGCVGVTWVNSGAYPTNRLAFASFDEDRFHNELKNGRPRSGETRAEFEGRVAKESFDEEKGFLRAREVASVMNRALENAHDESAYLDNLRRELANGNDALRNEDARSPFYSALRNTPSFKERNGGNHDPSRMKAVIYSKHFWSGQDRSSSADKRKYGDPDAFRPAPGTGLVDMSRDRNIPRSPTSPGEGFVNFDYGWFGAQTEADADKTVWTHGNHYHAPEGALGAMHVYESKFRNWSEGYSDFDRGAYVITFIPKSWNTAPDKVKQGWP
As for B1, the Productivity result in the series on N,N-dimethylcasein [2] was “−”. The Rate result with N,N-dimethylcasein [3] is “+ (an improvement between 1.2 and 2-fold)”.

B2: Wild-type Tgase: commercially available wild-type Tgase (Ajinimoto, Activa TI formulation) formulated at 0.75-1.0% enzyme in maltodextrin (protein, UniProt P81453 77-407, looked up)
Protein-glutamine …: B1 Protein-glutamine … with P2S, S50Q, A74Q, H91K, L124Q, R151K, R152K, E282N, A284S
modifications: formulated in maltodextrin
As to B2, the Specific activity is reported as 23.3 U/mg in series [4] (timepoint 0 min); 31.0 U/mg in series [4] (timepoint 30 min); 27.0 U/mg in series [4] (timepoint 60 min); 29.3 U/mg in series [4] (timepoint 120 min); 36.8 U/mg in series [4] (timepoint 240 min); 21.2 U/mg in series [4] (timepoint 480 min). The “Fluorescence/[Enzyme]” value with collagen (FITC-Cadaverine, 37 °C) is on record as 6.7 RFU/ppm; in the series with collagen (FITC-Cadaverine, 50 °C), 4.4 RFU/ppm; with collagen (FITC-Gelatin, 37 °C), 4.6 RFU/ppm; with collagen (FITC-Gelatin, 50 °C) it was 6.8 RFU/ppm.

Source of the values: patent US20260327578A1, “TRANSGLUTAMINASES AND USES THEREOF” (CURIE CO. INC., priority 2023, published 2026).
